Laboratory results reported in article PMC5916030.

B1: ML6 (ssDNA)
DNA: GGACCAGCCGCCGCGCCTTGACCGGGGGTA
B2: scramble 30-mer (ssDNA)
DNA: CGCACTGAAGTGGGATACCGCCTAAACGGA
B3: ML7 (ssDNA)
DNA: GGAGAGAGGGAGACGCGCAACCTCGACCCGT

Legend:
[1] = target: anthrax lethal factor (LF) (Bacillus anthracis, UniProt P15917 34-809); assay: […]) immobilized in 20 mM HEPES pH 7.4, […]
Target sequence in this assay (P15917 34-809): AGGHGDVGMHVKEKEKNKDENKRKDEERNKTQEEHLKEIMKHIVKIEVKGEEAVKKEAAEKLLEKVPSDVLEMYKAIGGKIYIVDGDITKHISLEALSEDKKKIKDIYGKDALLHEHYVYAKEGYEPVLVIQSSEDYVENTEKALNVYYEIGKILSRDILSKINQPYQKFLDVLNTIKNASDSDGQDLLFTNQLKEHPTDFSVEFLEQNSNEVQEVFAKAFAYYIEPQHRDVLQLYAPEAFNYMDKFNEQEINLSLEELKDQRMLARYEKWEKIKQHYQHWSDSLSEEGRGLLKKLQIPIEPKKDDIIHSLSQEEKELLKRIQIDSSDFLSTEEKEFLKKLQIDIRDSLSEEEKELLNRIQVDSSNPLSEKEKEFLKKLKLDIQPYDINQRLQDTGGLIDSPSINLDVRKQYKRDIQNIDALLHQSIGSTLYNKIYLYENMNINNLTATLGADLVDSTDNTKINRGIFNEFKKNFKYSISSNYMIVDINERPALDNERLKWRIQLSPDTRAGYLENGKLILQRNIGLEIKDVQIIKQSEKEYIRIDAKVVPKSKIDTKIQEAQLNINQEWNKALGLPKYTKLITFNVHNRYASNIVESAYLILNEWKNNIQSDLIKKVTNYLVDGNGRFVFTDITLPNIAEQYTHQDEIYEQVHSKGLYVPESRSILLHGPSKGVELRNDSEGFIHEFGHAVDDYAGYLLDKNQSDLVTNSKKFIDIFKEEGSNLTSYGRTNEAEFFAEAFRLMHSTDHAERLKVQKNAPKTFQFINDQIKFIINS

[2] = target: anthrax lethal factor (LF) (Bacillus anthracis, UniProt P15917 34-809); assay: aptamer ELISA
Target sequence in this assay (P15917 34-809): as above

Binder | binding result [1] | binding result [2]
B1 | no binding | 
B2 |  | no binding
B3 | no binding | 
